Data: publication PMC6720452, “Structural Basis for Recruitment of DAPK1 to the KLHL20 E3 Ligase” (Structure(London, England:1993), 2019)
Positions count from the first letter of the chain named.

B1: DAPK1 WT: full-length HA-DAPK1 wild-type (protein)
chain: MTVFRQENVDDYYDTGEELGSGQFAVVKKCREKSTGLQYAAKFIKKRRTKSSRRGVSREDIEREVSILKEIQHPNVITLHEVYENKTDVILILELVAGGELFDFLAEKESLTEEEATEFLKQILNGVYYLHSLQIAHFDLKPENIMLLDRNVPKPRIKIIDFGLAHKIDFGNEFKNIFGTPEFVAPEIVNYEPLGLEADMWSIGVITYILLSGASPFLGDTKQETLANVSAVNYEFEDEYFSNTSALAKDFIRRLLVKDPKKRMTIQDSLQHPWIKPKDTQQALSRKASAVNMEKFKKFAARKKWKQSVRLISLCQRLSRSFLSRSNMSVARSDDTLDEEDSFVMKAIIHAINDDNVPGLQHLLGSLSNYDVNQPNKHGTPPLLIAAGCGNIQILQLLIKRGSRIDVQDKGGSNAVYWAARHGHVDTLKFLSENKCPLDVKDKSGEMALHVAARYGHADVAQLLCSFGSNPNIQDKEEETPLHCAAWHGYYSVAKALCEAGCNVNIKNREGETPLLTASARGYHDIVECLAEHGADLNACDKDGHIALHLAVRRCQMEVIKTLLSQGCFVDYQDRHGNTPLHVACKDGNMPIVVALCEANCNLDISNKYGRTPLHLAANNGILDVVRYLCLMGASVEALTTDGKTAEDLARSEQHEHVAGLLARLRKDTHRGLFIQQLRPTQNLQPRIKLKLFGHSGSGKTTLVESLKCGLLRSFFRRRRPRLSSTNSSRFPPSPLASKPTVSVSINNLYPGCENVSVRSRSMMFEPGLTKGMLEVFVAPTHHPHCSADDQSTKAIDIQNAYLNGVGDFSVWEFSGNPVYFCCYDYFAANDPTSIHVVVFSLEEPYEIQLNQVIFWLSFLKSLVPVEEPIAFGGKLKNPLQVVLVATHADIMNVPRPAGGEFGYDKDTSLLKEIRNRFGNDLHISNKLFVLDAGASGSKDMKVLRNHLQEIRSQIVSVCPPMTHLCEKIISTLPSWRKLNGPNQLMSLQQFVYDVQDQLNPLASEEDLRRIAQQLHSTGEINIMQSETVQDVLLLDPRWLCTNVLGKLLSVETPRALHHYRGRYTVEDIQRLVPDSDVEELLQILDAMDICARDLSSGTMVDVPALIKTDNLHRSWADEEDEVMVYGGVRIVPVEHLTPFPCGIFHKVQVNLCRWIHQQSTEGDADIRLWVNGCKLANRGAELLVLLVNHGQGIEVQVRGLETEKIKCCLLLDSVCSTIENVMATTLPGLLTVKHYLSPQQLREHHEPVMIYQPRDFFRAQTLKETSLTNTMGGYKESFSSIMCFGCHDVYSQASLGMDIHASDLNLLTRRKLSRLLDPPDPLGKDWCLLAMNLGLPDLVAKYNTSNGAPKDFLPSPLHALLREWTTYPESTVGTLMSKLRELGRRDAADFLLKASSVFKINLDGNGQEAYASSCNSGTSYNSISSVVSR
modifications: left off: HA, N-terminal, kept
notes: full-length HA-DAPK1 wild-type
B2: DAPK1 mutant: full-length DAPK1 mutant in which the critical 1,336-“LPDLV” motif was mutated to “LPAAV” (protein)
chain: B1 chain with D1338A, L1339A
modifications: left off: HA, N-terminal, kept

Key:
FLAG-KLHL20 Kelch domain = assay: Co-immunoprecipitation of KLHL20 and DAPK1 in HEK293T cells; type: cell-based, human; conditions: FLAG-KLHL20 Kelch domain and HA-DAPK1 full-length co-transfected, 40 hours after transfection, anti-FLAG IP, Western blot
From the text: (§1) To confirm the identified “LPDLV” motif as a regulatory site for DAPK1 interaction and degradation, we performed immunoprecipitation and cycloheximide (CHX) chase experiments in HEK293T cells. […] We then performed a CHX chase assay to compare the degradation of DAPK1 variants in the presence or absence of full-length KLHL20.
Figure 6 Mutations in the DAPK1 “LPDLV” Motif Impair DAPK1 Binding and Degradation by KLHL20 (A) Full-length DAPK1 variants and KLHL20 Kelch domain were co-transfected into HEK293T cells as indicated. FLAG-KLHL20 Kelch domain was immunoprecipitated (IP) with anti-FLAG antibody. DAPK1 WT was robustly co-purified with KLHL20, whereas DAPK1 mutant was only recovered at the background level of the beads alone. (B) DAPK1 variants were transfected into HEK293T cells with or without full-length KLHL20 as indicated. […] DAPK1 protein levels were detected by western blot and normalized to GAPDH. (C) Quantitation of (B). […]
HEK293T cells were cultured in high glucose Dulbecco’s Modified Eagle’s Medium (Sigma-Aldrich) with 5% Penicillin Streptomycin (ThermoFisher) and 10% Fetal Bovine Serum (Sigma-Aldrich) inside a 5% CO2 incubator at 37°C. […] Results were analyzed using Western blotting (Anti-Flag antibody, Sigma-Aldrich, F1804; Anti-HA antibody, Biolegend, 901501; Anti-Myc antibody, Cell signalling, 2040S).

full-length KLHL20 = assay: Cycloheximide chase assay in HEK293T cells; type: cell-based, human; conditions: 100 μg/mL cycloheximide, 0-6h; for Half-life / degradation of DAPK1 on KLHL20 co-expression: with vs without full-length KLHL20, Western blot normalized to GAPDH
From the text: as §1
Figure 6 Mutations in the DAPK1 “LPDLV” Motif Impair DAPK1 Binding and Degradation by KLHL20 (A) Full-length DAPK1 variants and KLHL20 Kelch domain were co-transfected into HEK293T cells as indicated. FLAG-KLHL20 Kelch domain was immunoprecipitated (IP) with anti-FLAG antibody. DAPK1 WT was robustly co-purified with KLHL20, whereas DAPK1 mutant was only recovered at the background level of the beads alone. (B) DAPK1 variants were transfected into HEK293T cells with or without full-length KLHL20 as indicated. At 24 h post transfection, cells were incubated with 100 μg/mL cycloheximide (CHX) and harvested at different time points as indicated. DAPK1 protein levels were detected by western blot and normalized to GAPDH. (C) Quantitation of (B).
For structural and biophysical studies, the Kelch domains of human KLHL20 (Uniprot Q9Y2M5 isoform 1, M303-E605) and KLHL3 (Uniprot Q9UH77 isoform 1, residues S298–L587) were cloned using ligation-independent cloning into the bacterial expression vector pNIC28-Bsa4 (GenBank accession number EF198106), which provides for an N-terminal hexahistidine tag and TEV cleavage site. For cellular assays, full length DAPK1 was cloned into pcDNA3.1(+) providing an N-terminal HA tag. The mutant DAPK1 (1336-‘LPDLV’ motif mutated to ‘LPAAV’) was created in the same vector by site directed mutagenesis. […]
HEK293T cells were cultured as described above until 60% confluency. […] Results were analyzed using Western blotting with corresponding antibodies. GAPDH level in each sample was also detected for control (anti-GAPDH antibody; Thermo Fisher, MA5-15738). Western blot band intensities were quantified using Image Studio Lite Ver 5.2 and normalized for the GADPH control.

Molecule	Recovery of DAPK1 in KLHL20 immunoprecipitation (FLAG-KLHL20 Kelch domain)	Half-life / degradation of DAPK1 on KLHL20 co-expression (full-length KLHL20)	Half-life of DAPK1 mutant compared with DAPK1 WT (full-length KLHL20; with or without full-length KLHL20, Western blot normalized to GAPDH)
B1	robustly bound to KLHL20	striking reduction in the half-life	–
B2	only recovered at a low background level	strikingly resistant to KLHL20 co-expression	exceeded that of DAPK1 WT under any of the conditions above
